The values below come from the nanobody polyreactivity screen of Harvey et al. (2022).

The data set can be described thus: yeast display, Sf9 membrane polyspecificity reagent, FACS + sequencing; frameworks hold sequencing errors. The procedure, abridged:
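Polyreactivity labels are assigned by the sorting gate from which each nanobody was recovered. The gates were low and high (top ~1%), set on anti-HA fluorescence for expression and streptavidin fluorescence for reagent binding. Before sorting, galactose-induced (36–48 hours) yeast display cells were stained for 1 hour at 4 °C with 10% biotinylated, detergent-solubilized Sf9 membrane reagent.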
“QVQLVESGGGLVQAGGSLRLSCAASGSIFVYYAMGWYRQAPGKERELVAAISQRGGRTYYADSVKGRFTISRDNAKNTVYLQMNSLKPEDTAVYYCAADSGPASAGYYYWGQGTQVTVSS”: the “polyreactivity (PSR sort gate)” value was “high polyreactivity”.

Consider “QVQLVESGGGLVQAGGSLRLSCAASGSIFVYYAMGWYRQAPGKERELVAAISSGGRTYYADSVKGRFTISRDNAKNTVSLQMNSLKPEDTAVYYCNAVHYFQYGYYSWGQGTQVTVSS”, for which the “polyreactivity (PSR sort gate)” value is recorded as “high polyreactivity”. For “QVQLVESGGGLVQAGGSLRLSCAASGSIFVYYAMGWYRQAPGKERELVAAITRRGGSTYYADSVKGRFTISRDNAKNTVYLQMNSLKPEDTAVYYCNSYTSRQYGLEYWGQGTQVSVSS” the value was “high polyreactivity”; for “QVQLVESGGGLVQAGGSLRLSCAASGSIFVYYAMGWYRQAPGKERELVAAITSGGSTNYADSVKGRFTISRDNAQNTVYLQMNSLKPEDTAVYYCAVVTRAHPEDYWGQGTQVTVSS”, “high polyreactivity”; for “QVQLVESGGGLVQAGGSLRLSCAASGSIFVYYAMGWYRQAPGKERELVAGISTSGGSTYYADSVKGRFTISRDNAKNTVYLQMNSLKPEDTAVYYCAAVDSFGYYKLYEYWGQGTQVTVSS”, “high polyreactivity”.

Take “QVQLVESGGGLVQAGGSLRLSCAASGSIFVYYAMGWYRQAPGKERELVATITNDGSTYADSVKGRFTISRDNAKNTVYLQMNSLKPEDTAVYYCAAKIPSDRTIYDYWGQGTQVTVSS”: the “polyreactivity (PSR sort gate)” value was “low polyreactivity”. For “QVQLVESGGGLVQAGGSLRLSCAASGSIFVYYTMGWYRKAPGKERELVASIDSGDRTNYADSVKGRFTISRDNAKNTVYLQMNSLKPEDTAVYYCAARHSRSWRFNSRRRYGYWGQGTQVTVSS” the value was “high polyreactivity”.

In the case of “QVQLVESGGGLVQAGGSLRLSCAASGSIFWDNAMGWYRQAPGKERELVAAITSSGDTTYYADSVKGRFTISRDNAKNTVYVQMNSLKPEDTAVYYCAKVFGPTDYLTGTFKGDYWGQGTQVTVSS”, the “polyreactivity (PSR sort gate)” value is given as “low polyreactivity”.

As to “QVQLVESGGGLVQAGGSLRLSCAASGSIFWGNAMGWYRQAPGKERELVAAIDWSGGSTYYADSVKGRFTISRDNAKNTVYLQMNSLKPEDTAVYYCAASGRYDYDYWGQGTQVTVSS”, the “polyreactivity (PSR sort gate)” value is reported as “low polyreactivity”.

As for “QVQLVESGGGLVQAGGSLRLSCAASGSIFWGNAMGWYRQAPGKERELVAAITSGGSTNYADSVKGRFTISRDNAKNTVYLQMNSLKPEDTAVYYCIADVARVPFEFDYWGQGTQVTVSS”, the “polyreactivity (PSR sort gate)” value was “low polyreactivity”. For “QVQLVESGGGLVQAGGSLRLSCAASGSIFWGNDMGWYRQAPGKERELVAGIRNSGTSTYYADSVKGRFTISRDNAKNTVYVQMNSLKPEDTAVYDCAAADGRQYSRYYWRGHDYWGQGTQVTVSS”, the “polyreactivity (PSR sort gate)” value is listed as “low polyreactivity”. For the sequence “QVQLVESGGGLVQAGGSLRLSCAASGSIFWINAMGWYRQAPGKERELVADIDVSGGSTYYADSVKGRFTISRDNAKNTVYLQMNSLKPEDTAVYYCAADDYWAYLYYKTSEYDYWGQGTQVTVSS”, the “polyreactivity (PSR sort gate)” value is recorded as “low polyreactivity”.

Take “QVQLVESGGGLVQAGGSLRLSCAASGSIFWIYAMGWYRQAPGKERELVATITRRGGSTYYADSVKGRFTISRDNAKNTGYLQMNSLKPEDSAVYYCATEPGYTYLTSYKYDYWGQGTQVTVSS”: the “polyreactivity (PSR sort gate)” value is “low polyreactivity”. The result for “QVQLVESGGGLVQAGGSLRLSCAASGSIFWLYAMGWYRQAPGKERELVARINWSGGNTYYADSVKGRFTISRDNAKNTDYLQMNSLKPEDTAVYYCNARSQYRMNYWGQGTQVTGSS” reads “low polyreactivity”; that for “QVQLVESGGGLVQAGGSLRLSCAASGSIFWNNAMGWYRQAPGKERELVAGISGGSTNYADSVKGRFTISRDNAKNTVYLQMNSLKPEDTAVYYCATERQWESRFEAYDYWGQGTQVTVSS”, “low polyreactivity”.

Take “QVQLVESGGGLVQAGGSLRLSCAASGSIFWPYAMGWYRQAPGKERELVAAISSSGTSTYYADSVKGRFTISRDNAKNTVYLQMNSLKPEDTAVYYCAKELFTYPYEYWGQGTQVTVSS”: the “polyreactivity (PSR sort gate)” value is given as “low polyreactivity”.

On to “QVQLVESGGGLVQAGGSLRLSCAASGSIFWQNAMGWYRQAPGKERELVAAISRNGGSTNYADSVKGRFTISRDNAKNTVYLQMNSLKPEDTAVYYCAAVGTVSRTVGYNYWGQGTQVTVSS”, for which the “polyreactivity (PSR sort gate)” value is given as “high polyreactivity”. The result for “QVQLVESGGGLVQAGGSLRLSCAASGSIFWQNTMGWYRQAPGKERELVATISSGDSTYYADSVKGRFTISRDNAKNTVYLQMNSLKPEDTAVYYCNTTEHKYVSSFEYGYWGQGTQVTVSS” reads “low polyreactivity”; that for “QVQLVESGGGLVQAGGSLRLSCAASGSIFWQYAMGWYRQAPGKERELVAAINWSGDTTYYADSVKGRFTISRDNAKNTVYLQMNSLKPEDTAVYFCAAVGGVSYGGSPKTHAGEDYWGQGTQVTVSS”, “low polyreactivity”; that for “QVQLVESGGGLVQAGGSLRLSCAASGSIFWSNAMGWYRQAPGKELELVAAITTSDGSTYYADSVKGRFTISRDNAKNTVYLQMNSLKPEDNAVYYCAADASTWYTEEYWGQGTQVTVSS”, “low polyreactivity”. For “QVQLVESGGGLVQAGGSLRLSCAASGSIFWSYAMGWYRQAPGKERELVAAINWSGGRTYYADSVKGRFTISRDNAKNTVYLQMNSLKPEDTAVYYCNAPVHTAQGDEYDYWGQGTQVTVSS” the value was “high polyreactivity”. For the sequence “QVQLVESGGGLVQAGGSLRLSCAASGSIFWSYDMGWYRQAPGKERELVATITSGDSTYYADSVKGRFTISRDNAKNTVYLQMNSLKPEDTAVYYCNVDVSVEVAYWGQGTQVTVSS”, the “polyreactivity (PSR sort gate)” value is “low polyreactivity”. In the case of “QVQLVESGGGLVQAGGSLRLSCAASGSIFWVYAMGWYRQAPGKERELVAAISSSGGRTYYADSVKGRFTISRDNAKNTVYLQMNSVKPEVTAVYYCAARWKTGYNYWGQGTQVTVSS”, the “polyreactivity (PSR sort gate)” value is reported as “high polyreactivity”.

Consider “QVQLVESGGGLVQAGGSLRLSCAASGSIFWWNAMGWYRQAPGKERELVAAINWSTGRTYYADSVKGRFTISRDNAKNTVYLQMNSLKPEDTAVYYCNADSKSSYYWYLWYNYWGQGTQVTVSS”, for which the “polyreactivity (PSR sort gate)” value is on record as “low polyreactivity”. The result for “QVQLVESGGGLVQAGGSLRLSCAASGSIFWWNTMGWYRQAPGKERELVAAITFSGGSTYYADSVKGRFTISRDNAKNTVYLQMNSLKPEDTAVYYCNADGWVSVRGTWSDGGYWGQGTQVTVSS” reads “low polyreactivity”; that for “QVQLVESGGGLVQAGGSLRLSCAASGSIFWYNAMGWYRQAPGKERELVAAINWSGGSTFYADSVKGRFTISRDNAKNTVFLQMNSLKPEDTAVYYCAADDWYTGYDYWGHGTQVTVSS”, “high polyreactivity”; that for “QVQLVESGGGLVQAGGSLRLSCAASGSIFWYNAMGWYRQAPGKERELVARISSSGDSTYYADSVKGRFTISRDNAKNTVYLQINSLKPEDTAVYYCNVDYWSISESSWGYYTSYDYWGQGTQVTVSS”, “high polyreactivity”.

“QVQLVESGGGLVQAGGSLRLSCAASGSIFWYYAMGWYRQAPGKERELVAAISISGSTYYADSVKGRFTISRDNAKNTVYLQMNSLKPEDTAVYYCAARKFFWRSNYDYWGQGTQVNVSS”: the “polyreactivity (PSR sort gate)” value is “low polyreactivity”.

“QVQLVESGGGLVQAGGSLRLSCAASGSIFWYYDMGWYRQAPGKERELVATISRTGRTYYADSVKGRFTISRDNAKNTVYLQMNSLKPEDTAVYYCAAVPRGWFSYPSGYDYWGQGTQVTVSS”: the “polyreactivity (PSR sort gate)” value is reported as “high polyreactivity”. With “QVQLVESGGGLVQAGGSLRLSCAASGSIFWYYGMGWYRPAPAKERELVAAISSGGSTNYADSVKGRFAISRDNAKNTVYIQMNSLKPEDTAVYYCAVRFTFPRYPASYSRYYYWGQGTQVTVSS”, the “polyreactivity (PSR sort gate)” value is reported as “high polyreactivity”.

With “QVQLVESGGGLVQAGGSLRLSCAASGSIFWYYGMGWYRQAPGKERELVAAISSGGSTNYADSVKGRFAISRDNAKNTVYLQMNRLKPEDTAVYYCATKGYLWGQGTQVTVSS”, the “polyreactivity (PSR sort gate)” value was “high polyreactivity”. With “QVQLVESGGGLVQAGGSLRLSCAASGSIFWYYVMGWYRPAPGKERELVAAISNVSTYYADSVKGRFTISRDNAKNTVYLQMNSLKPEDTAVYYCAARGLLWYYSWRYYYWGQGTQVTVSS”, the “polyreactivity (PSR sort gate)” value is reported as “low polyreactivity”.

For “QVQLVESGGGLVQAGGSLRLSCAASGSIFYANDMGWYRQAPGKERELVADITSDSTYYADSVKGRFTISRDNAKNTVYLQMNSLKPEDTAVYYCAADVYGVHAPQSDYWTKYDYWGQGTQVTVSS”, the “polyreactivity (PSR sort gate)” value is “low polyreactivity”. On to “QVQLVESGGGLVQAGGSLRLSCAASGSIFYAYAMGWYRQAPGKEREFVAVISYSGGSTYYADSVKGRFTISRDNAKNTVYLQMYSLKPEDTAVYYCAARYRRPYSYYYWGQGTQVTVSS”, for which the “polyreactivity (PSR sort gate)” value is on record as “high polyreactivity”. Consider “QVQLVESGGGLVQAGGSLRLSCAASGSIFYAYGMGWYRQAPGKERELVAAISSRGGSTHYADSVKGRFTISRDNAKNTVYLQMNSLKPEDTAVYYCAARHAYPYRRGDFNYWGQGTQVTVSS”, for which the “polyreactivity (PSR sort gate)” value is “high polyreactivity”. The result for “QVQLVESGGGLVQAGGSLRLSCAASGSIFYAYVMGWYRQAPGKERELVAAIDIGGGTYADSVKGRFTISRDNAKNTVYLQMNMLKPEDTAVYYCAKAGYFSRGVYVYYLDEYDYWGQGSQVTVSS” reads “high polyreactivity”; that for “QVQLVESGGGLVQAGGSLRLSCAASGSIFYDNALGWYRQAPGKERELVAAIDDSDRTYYADSVKGRFTISRDNAKNTVYLQMNSLKPEDTAVYYCARDRWKWHYGYDYWGQGTQVTVSS”, “low polyreactivity”. On to “QVQLVESGGGLVQAGGSLRLSCAASGSIFYDNAMGWYRQAPGKERELVAAISGNDATTYYADSVKGRFTISRDNAKNTVYLQMNSLKPEDTAVYSCAADYVLNPWRTRYDYWGQGTQVTVSS”, for which the “polyreactivity (PSR sort gate)” value is given as “low polyreactivity”. The result for “QVQLVESGGGLVQAGGSLRLSCAASGSIFYDNAMGWYRQAPGKERELVASIRWSGDSTYYADSVKGRFTISRDNAKNTVYLQMNSLKPEDTAVYYCAADPVEPYFTAIAYDFWGQGTQVTVSS” reads “low polyreactivity”; that for “QVQLVESGGGLVQAGGSLRLSCAASGSIFYDYAMGWYRQAPGKERELVAAISSSGSSTYYADSVKGRFTISRDNAKNTVYLQMNSLKPEDTAVYYCAAYSRRQWKYDYWGQGTQVTVSS”, “high polyreactivity”.

For “QVQLVESGGGLVQAGGSLRLSCAASGSIFYDYAMGWYSQEPGKERELVAAISSSGITYYADSVKGRFTISRDNAKTTVYLQMNSLKPEDTAVYYCNARSYLRDYDYWGQGTQVTVTS”, the “polyreactivity (PSR sort gate)” value is listed as “high polyreactivity”.
